Measured values from IntAct's records for PubMed 16339905.

B1: X-linked retinitis pigmentosa GTPase regulator-interacting protein 1 (Homo sapiens), Q96KN7-1 (parent)
chain: MSHLVDPTSGDLPVRDIDAIPLVLPASKGKNMKTQPPLSRMNREELEDSFFRLREDHMLVKELSWKQQDEIKRLRTTLLRLTAAGRDLRVAEEAAPLSETARRGQKAGWRQRLSMHQRPQMHRLQGHFHCVGPASPRRAQPRVQVGHRQLHTAGAPVPEKPKRGPRDRLSYTAPPSFKEHATNENRGEVASKPSELVSGSNSIISFSSVISMAKPIGLCMPNSAHIMASNTMQVEEPPKSPEKMWPKDENFEQRSSLECAQKAAELRASIKEKVELIRLKKLLHERNASLVMTKAQLTEVQEAYETLLQKNQGILSAAHEALLKQVNELRAELKEESKKAVSLKSQLEDVSILQMTLKEFQERVEDLEKERKLLNDNYDKLLESMLDSSDSSSQPHWSNELIAEQLQQQVSQLQDQLDAELEDKRKVLLELSREKAQNEDLKLEVTNILQKHKQEVELLQNAATISQPPDRQSEPATHPAVLQENTQIEPSEPKNQEEKKLSQVLNELQVSHAETTLELEKTRDMLILQRKINVCYQEELEAMMTKADNDNRDHKEKLERLTRLLDLKNNRIKQLEGILRSHDLPTSEQLKDVAYGTRPLSLCLETLPAHGDEDKVDISLLHQGENLFELHIHQAFLTSAALAQAGDTQPTTFCTYSFYDFETHCTPLSVGPQPLYDFTSQYVMETDSLFLHYLQEASARLDIHQAMASEHSTLAAGWICFDRVLETVEKVHGLATLIGAGGEEFGVLEYWMRLRFPIKPSLQACNKRKKAQVYLSTDVLGGRKAQEEEFRSESWEPQNELWIEITKCCGLRSRWLGTQPSPYAVYRFFTFSDHDTAIIPASNNPYFRDQARFPVLVTSDLDHYLRREALSIHVFDDEDLEPGSYLGRARVPLLPLAKNESIKGDFNLTDPAEKPNGSIQVQLDWKFPYIPPESFLKPEAQTKGKDTKDSSKISSEEEKASFPSQDQMASPEVPIEAGQYRSKRKPPHGGERKEKEHQVVSYSRRKHGKRIGVQGKNRMEYLSLNILNGNTPEQVNYTEWKFSETNSFIGDGFKNQHEEEEMTLSHSALKQKEPLHPVNDKESSEQGSEVSEAQTTDSDDVIVPPMSQKYPKADSEKMCIEIVSLAFYPEAEVMSDENIKQVYVEYKFYDLPLSETETPVSLRKPRAGEEIHFHFSKVIDLDPQEQQGRRRFLFDMLNGQDPDQGHLKFTVVSDPLDEEKKECEEVGYAYLQLWQILESGRDILEQELDIVSPEDLATPIGRLKVSLQAAAVLHAIYKEMTEDLFS
partner: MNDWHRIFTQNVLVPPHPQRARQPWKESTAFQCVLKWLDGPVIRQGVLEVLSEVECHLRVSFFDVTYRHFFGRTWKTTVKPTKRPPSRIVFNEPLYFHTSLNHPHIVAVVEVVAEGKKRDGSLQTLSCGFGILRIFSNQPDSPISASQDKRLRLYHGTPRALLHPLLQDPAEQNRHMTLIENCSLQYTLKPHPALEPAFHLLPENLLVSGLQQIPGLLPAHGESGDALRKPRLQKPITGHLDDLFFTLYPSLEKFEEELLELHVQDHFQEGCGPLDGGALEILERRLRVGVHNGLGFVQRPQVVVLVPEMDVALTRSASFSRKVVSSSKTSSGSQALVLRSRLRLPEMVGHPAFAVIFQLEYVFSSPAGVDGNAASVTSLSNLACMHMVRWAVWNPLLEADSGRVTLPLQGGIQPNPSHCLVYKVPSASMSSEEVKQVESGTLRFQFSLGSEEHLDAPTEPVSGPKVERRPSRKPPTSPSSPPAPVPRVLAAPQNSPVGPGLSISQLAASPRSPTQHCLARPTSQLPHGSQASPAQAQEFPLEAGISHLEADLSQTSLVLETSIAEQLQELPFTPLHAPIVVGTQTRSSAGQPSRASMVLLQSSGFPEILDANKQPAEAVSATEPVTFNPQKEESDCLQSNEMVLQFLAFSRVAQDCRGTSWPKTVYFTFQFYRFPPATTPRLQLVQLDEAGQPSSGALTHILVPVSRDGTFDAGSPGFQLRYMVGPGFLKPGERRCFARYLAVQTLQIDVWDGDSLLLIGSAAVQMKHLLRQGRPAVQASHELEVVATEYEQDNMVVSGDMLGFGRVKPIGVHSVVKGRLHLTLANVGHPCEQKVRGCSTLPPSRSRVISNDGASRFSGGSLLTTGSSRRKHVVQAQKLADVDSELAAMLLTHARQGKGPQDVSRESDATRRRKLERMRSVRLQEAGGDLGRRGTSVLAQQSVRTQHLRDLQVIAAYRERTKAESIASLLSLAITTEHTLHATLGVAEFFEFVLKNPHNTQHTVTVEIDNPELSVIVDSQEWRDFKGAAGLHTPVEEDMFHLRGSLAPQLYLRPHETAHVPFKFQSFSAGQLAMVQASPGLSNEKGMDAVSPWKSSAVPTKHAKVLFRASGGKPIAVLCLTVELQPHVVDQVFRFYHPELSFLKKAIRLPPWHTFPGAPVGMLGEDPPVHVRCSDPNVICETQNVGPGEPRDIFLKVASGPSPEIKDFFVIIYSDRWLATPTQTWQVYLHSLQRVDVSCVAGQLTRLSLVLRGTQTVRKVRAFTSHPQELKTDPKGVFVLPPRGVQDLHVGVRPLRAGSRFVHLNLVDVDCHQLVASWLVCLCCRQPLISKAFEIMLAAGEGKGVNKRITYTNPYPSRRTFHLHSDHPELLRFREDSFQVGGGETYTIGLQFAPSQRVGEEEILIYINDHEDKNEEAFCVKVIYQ
B2: Nephrocystin-4 (Homo sapiens), O75161-1 (parent)
chain: B1 partner
partner: B1 chain

Variants of: B1
Settings: with NPHP4, O75161-1

Variant | effect of a mutation on the interaction
D876G | disrupting interaction
G746E | disrupting interaction
R852Q | with no effect

Variants of: B1
Settings: with NPHP4, O75161-1
Remark: another data set of the same source

Variant | effect of a mutation on the interaction
D876G | decreasing interaction

Variants of: B2
Settings: with RPGRIP1, Q96KN7-1

Variant | effect of a mutation on the interaction
G754R | disrupting interaction
